# Test results: patent publication CN114106188A (SHENZHEN PEOPLE HOSPITAL, dated 2022)
# Biological target: T1, ERp57蛋白 (蛋白二硫化物异构酶A3, purified recombinant full-length protein)
# T1 chain: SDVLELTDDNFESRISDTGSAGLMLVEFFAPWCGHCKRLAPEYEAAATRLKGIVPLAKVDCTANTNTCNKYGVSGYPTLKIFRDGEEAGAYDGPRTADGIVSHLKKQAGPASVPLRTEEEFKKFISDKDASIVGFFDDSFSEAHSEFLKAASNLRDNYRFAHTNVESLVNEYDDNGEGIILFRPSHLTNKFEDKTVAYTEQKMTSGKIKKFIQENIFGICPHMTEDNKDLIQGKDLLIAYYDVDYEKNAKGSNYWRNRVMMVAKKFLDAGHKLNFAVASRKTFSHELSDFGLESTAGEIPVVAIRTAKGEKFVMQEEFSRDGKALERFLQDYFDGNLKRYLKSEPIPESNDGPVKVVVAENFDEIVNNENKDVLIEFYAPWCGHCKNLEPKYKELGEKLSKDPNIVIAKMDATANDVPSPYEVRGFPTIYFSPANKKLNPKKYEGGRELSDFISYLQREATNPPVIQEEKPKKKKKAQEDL
# Assay: SPR (Biacore), antigen protein immobilised on chip, nanobody as analyte
binder,measurement,value
"NbA11纳米抗体 (VHH, Alpaca-derived nanobody from a naive phage display library; Expressed in E. coli from PET-14B with an HA tag and purified on a Ni column) VHH: AVQLVESGGGLVQAGGSLRLSCAASGRAFSRYAVGWFRQTPGKEREFVAAISYHGGYTAYADSVKGRFTISRDSTSNTVHLQMNSLKPEDTAVYYCNTDARALYDYWGQGTQVTVSS",Kd,419 nM
